Numbering of substitutions follows the chain as printed. In names and notes the source's numbering stands.
B1: L424T/Y426V (protein)
chain: MVAATATATAMATAASPLLNGTRIPARLRHRGLSVRCAAVAGGAAEAPASTGARLSADCVVVGGGISGLCTAQALATRHGVGDVLVTEARARPGGNITTVERPEEGYLWEEGPNSFQPSDPVLTMAVDSGLKDDLVFGDPNAPRFVLWEGKLRPVPSKPADLPFFDLMSIPGKLRAGLGALGIRPPPPGREESVEEFVRRNLGAEVFERLIEPFCSGVYAGDPSKLSMKAAFGKVWRLEETGGSIIGGTIKTIQERSKNPKPPRDARLPKPKGQTVASFRKGLAMLPNAITSSLGSKVKLLWKLTSITKSDDKGYVLEYETPEGVVSVQAKSVIMTIPSYVASNILRPLSSDAADALSRFYYPPVAAVTVSYPKEAIRKECLIDGELQGFGQLHPRSQGVETLGTIYSSSLFPNRAPDGRVLLTNVIGGATNTGIVSKTESELVEAVDRDLRKMLINSTAVDPLVLGVRVWPQAIPQFLVGHLDLLEAAKAALDRGGYDGLFLGGNYVAGVALGRCVEGAYESASQISDFLTKYAYK
modifications: Amino-acid sequence of PPO1 from corn mutant (ZmPPO1 L424T/Y426V)
B2: L424S/Y426V (protein)
chain: B1 chain with T424S
modifications: Amino-acid sequence of PPO1 form corn mutant (ZmPPO1 L424S/Y426V)
B3: L424V/Y426L (protein)
chain: B1 chain with T424V, V426L
modifications: Amino-acid sequence of PPO1 from corn mutant (ZmPPO1 L424V/Y426L)
B4: ZmPPO1 WT: Amino-acid sequence of PPO1 from wild-type corn (protein)
chain: B1 chain with T424L, V426Y
modifications: Amino-acid sequence of PPO1 from wild-type corn (ZmPPO1 WT)
B5: ZmPPO1 L424W/Y426L: Amino-acid sequence of PPO1 from corn mutant (protein)
chain: B1 chain with T424W, V426L
modifications: Amino-acid sequence of PPO1 from corn mutant (ZmPPO1 L424W/Y426L)
B6: L423I (protein)
chain: MAAAAAAMATATSATAAPPLRIRDAARRTRRRGHVRCAVASGAAEAPAAPGARVSADCVVVGGGISGLCTAQALATKHGVGDVLVTEARARPGGNITTAERAGEGYLWEEGPNSFQPSDPVLTMAVDSGLKDDLVFGDPNAPRFVLWEGKLRPVPSKPGDLPFFDLMSIPGKLRAGLGALGVRAPPPGREESVEDFVRRNLGAEVFERLIEPFCSGVYAGDPSKLSMKAAFGKVWRLEDTGGSIIGGTIKTIQERGKNPKPPRDPRLPTPKGQTVASFRKGLTMLPDAITSRLGSKVKLSWKLTSITKSDNKGYALVYETPEGVVSVQAKTVVMTIPSYVASDILRPLSSDAADALSIFYYPPVAAVTVSYPKEAIRKECLIDGELQGFGQLHPRSQGVETLGTIYSSSLFPNRAPAGRVLLINYIGGSTNTGIVSKTESELVEAVDRDLRKMLINPKAVDPLVLGVRVWPQAIPQFLIGHLDHLEAAKSALGKGGYDGLFLGGNYVAGVALGRCVEGAYESASQISDYLTKYAYK
modifications: Amino-acid sequence of PPO1 from rice mutant (OsPPO1 L423I)
B7: GmPPO1 WT: Amino-acid sequence of PPO1 from wild-type soybean (protein)
chain: MVSVFNEILFPPNQTLLRPSLHSPTSFFTSPTRKFPRSRPNPILRCSIAEESTASPPKTRDSAPVDCVVVGGGVSGLCIAQALATKHANANVVVTEARDRVGGNITTMERDGYLWEEGPNSFQPSDPMLTMVVDSGLKDELVLGDPDAPRFVLWNRKLRPVPGKLTDLPFFDLMSIGGKIRAGFGALGIRPPPPGHEESVEEFVRRNLGDEVFERLIEPFCSGVYAGDPSKLSMKAAFGKVWKLEKNGGSIIGGTFKAIQERNGASKPPRDPRLPKPKGQTVGSFRKGLTMLPDAISARLGNKVKLSWKLSSISKLDSGEYSLTYETPEGVVSLQCKTVVLTIPSYVASTLLRPLSAAAADALSKFYYPPVAAVSISYPKEAIRSECLIDGELKGFGQLHPRSQGVETLGTIYSSSLFPNRAPPGRVLLLNYIGGATNTGILSKTDSELVETVDRDLRKILINPNAQDPFVVGVRLWPQAIPQFLVGHLDLLDVAKASIRNTGFEGLFLGGNYVSGVALGRCVEGAYEVAAEVNDFLTNRVYK
modifications: Amino-acid sequence of PPO1 from wild-type soybean (GmPPO1)
B8: GmPPO1 L430S/Y432I: Amino-acid sequence of PPO1 from soybean mutant (protein)
chain: B7 chain with L430S, Y432I
modifications: Amino-acid sequence of PPO1 from soybean mutant (GmPPO1 L430S/Y432I)
B9: BnPPO1-C5 WT: Amino-acid sequence of PPO1 wild-type from oilseed rape (protein)
chain: MDLSLLRPQPFLSPFSNPFPRSRPYKPPNLRCSVSGGSVVGGSSTIEGGRGGKTVAADCVIVGGGISGLCIAQALVTKHPDAAKSVMVTEAKDRVGGNIITREEQGFLWEEGPNSFQPSDPMLTMVVDSGLKDDLVLGDPTAPRFVLWNGKLRPVPSKLTDLPFFDLMSIGGKIRAGFGAIGIRPSPPGREESVEEFVRRNLGDEVFERLIEPFCSGVYAGDPAKLSMKAAFGKVWKLEENGGSIIGGAFKAIQARNKAPKTTRDPRLPKPKGQTVGSFRKGLTMLPDAISARLGDKVKVSWKLSSISKLPSGGYSLTYETPEGIVTVQSKSVVMTVPSHVASSLLRPLSDSAAEALSKLYYPPVAAVSISYPKEAIRSECLIDGELKGFGQLHPRTQKVETLGTIYSSSLFPNRAPPGRVLLLNYIGGATNTGILSKSEGELVEAVDRDLRKMLIKPSSTDPLVLGVKVWPQAIPQFLIGHIDLVDAAKASLSSSGHEGLFLGGNYVAGVALGRCVEGAYETATQVNDFMSRYAYK
modifications: Amino-acid sequence of PPO1 wild-type from oilseed rape (BnPPO1-C5)
B10: BnPPO1-C5 L424S/Y426I: Amino-acid sequence of PPO1 from oilseed rape mutant (protein)
chain: B9 chain with L424S, Y426I
modifications: Amino-acid sequence of PPO1 from oilseed rape mutant (BnPPO1-C5 L424S/Y426I)

What was measured:
[1] = test system: PPO-deficient Escherichia coli (ΔhemG); assay: PPO-deficient E. coli (ΔhemG) transformed by corn ZmPPO1 mutant genes, growth on LB medium containing compound A; assay type: cell-based; settings: compound A 5 μM
Experimental: To verify whether the mutation of the PPO1-conserved protein motif LLLNYI in other plants could also confer resistance to herbicides, the mutation combination of leucine residues at the third position and tyrosine residues at the fifth position in the protein motif LLLNYI was carried out by using the same method as described in the above examples and screened by using of the LB medium containing herbicidal compound A, and the growth inhibition was observed.

Arabidopsis thaliana = assay: Herbicide resistance test of Arabidopsis thaliana seeds overexpressing crop PPO1 WT or mutant on MS medium; assay type: in vivo; settings: overexpressed in Arabidopsis thaliana seed; for tolerance to compound A compared with wild-type Arabidopsis thaliana / tolerance to compound A compared with the overexpressed wild-type PPO1: different concentrations of compound A; for tolerance to flumioxazin compared with wild-type Arabidopsis thaliana / tolerance to flumioxazin compared with the overexpressed wild-type PPO1: different concentrations of flumioxazin; for tolerance to saflufenacil compared with wild-type Arabidopsis thaliana / tolerance to saflufenacil compared with the overexpressed wild-type PPO1: different concentrations of saflufenacil
Experimental: 1) Sowing: plump and vernalized wild-type Arabidopsis thaliana seeds were selected, treated with 75% alcohol for 1 minute, disinfected with 10% NaClO for 6 minutes, and washed with sterile water for 5 to 6 times. After the sterilization was completed, the seeds were placed on a MS medium plate for one week, then transplanted to sterilized nutrient soil (nutrient soil:vermiculite=1:1) and cultured in a greenhouse at (25±2) ° C. with a photoperiod of 16 h/8 h (light/dark).
4) Infestation of Arabidopsis thaliana inflorescences: the uninfected Arabidopsis thaliana with good growth state and lush inflorescences were selected for infection and their fruit pods were cut off from the plants by scissors prior to transformation. The Arabidopsis thaliana inflorescences were dipped in the prepared infection solution for 0.5 to 1 minute. Then the infected Arabidopsis thaliana seedlings were placed in dark and humid conditions for 24 hours. After one week, the infection was repeated.
After the transformation of dipped Arabidopsis thaliana inflorescences, Arabidopsis thaliana TO-generation seeds were collected and sowed on a resistant MS plate containing 30 mg/L hygromycin to screen positive plants.
The obtained overexpressed mutant and wild-type Arabidopsis thaliana seeds of different crops were tested for resistance on a MS medium (petri dish) containing different concentrations of PPO-inhibiting herbicidal compounds, as shown in FIG. 12-23.

[2] = test system: PPO-deficient Escherichia coli (ΔhemG); assay: PPO-deficient E. coli (ΔhemG) transformed by rice OsPPO1 mutant genes, growth on LB medium containing herbicide; settings: 500 nM compound A

Molecule | growth of ΔhemG transformant on plates containing compound A, compared with ZmPPO1-WT [1] | tolerance to compound A compared with wild-type Arabidopsis thaliana (Arabidopsis thaliana) | tolerance to flumioxazin compared with wild-type Arabidopsis thaliana (Arabidopsis thaliana) | tolerance to saflufenacil compared with wild-type Arabidopsis thaliana (Arabidopsis thaliana) | tolerance to compound A compared with the overexpressed wild-type PPO1 (Arabidopsis thaliana) | tolerance to flumioxazin compared with the overexpressed wild-type PPO1 (Arabidopsis thaliana) | tolerance to saflufenacil compared with the overexpressed wild-type PPO1 (Arabidopsis thaliana) | growth of ΔhemG transformant on LB medium containing compound A, compared with the wild type [2]
B1 | grew normally without an inhibition | – | – | – | – | – | – | –
B2 | grew normally without an inhibition | – | – | – | – | – | – | –
B3 | grew normally without an inhibition | – | – | – | – | – | – | –
B4 | – | certain level of tolerance | certain level of tolerance | certain level of tolerance | – | – | – | –
B5 | grew normally without an inhibition | certain level of tolerance | certain level of tolerance | certain level of tolerance | much higher | much higher | much higher | –
B6 | – | – | – | – | – | – | – | grew normally
B7 | – | certain level of tolerance | certain level of tolerance | certain level of tolerance | – | – | – | –
B8 | – | certain level of tolerance | certain level of tolerance | certain level of tolerance | much higher | much higher | much higher | –
B9 | – | certain level of tolerance | certain level of tolerance | certain level of tolerance | – | – | – | –
B10 | – | certain level of tolerance | certain level of tolerance | certain level of tolerance | much higher | much higher | much higher | –
